Patent publication US20230348564A1, “ANTI-CANCER PROTEINS” (UNICHEM LABORATORIES LTD, priority 2020, published 2023)

Experiments:
Notch-1 = assay: biomarker levels in IOMM-Lee by ELISA; format: cell-based, Human; details: 1 μg/mL-80 μg/mL, 48 h
From the text: Effect of SEQ ID No 2 on the expression of following 7 biomarkers were estimated in Human Meningioma cell line (IOMM-Lee) using multiplex analysis: TNF-alpha, VEGF, VEGFR2, HGF, HGFR/c-MET, PDGF-BB, and Contactin-1. Levels of another marker, Notch-1 were also estimated by ELISA in the same cell line. These 8 biomarkers play very crucial role in the pathogenesis and progression of Brain Tumor. […] Supernatants were collected and the levels of these 8 markers were investigated.

mechanistic biomarkers = assay: modulation of mechanistic biomarkers (summary); format: cell-based
From the text: The effect of modulation of mechanistic biomarkers by recombinant lectin having the amino acid sequence of SEQ ID NO.2 is summarized as below: • increased levels of HGF, which binds to its receptor C-Met, and then acts on MAPK, • activated ATF-2 which is a tumor suppressor and acts via inducing apoptosis, • increased expression of c-kit, which is receptor for SCF, this acts downstream on MAPK, • increased the expression of JNK and inhibits p53, which activates AFT-2 resulting in apoptosis, • stimulated VEGF, VEGF-A and VEGFR2 expression, which activates Ras-Raf pathway, • inhibited expression of EGF, which binds to EGFR and exerts anticancer effect via Ras-Raf pathway or PKC, • stimulated Her-2, which activates Ras-Raf-MEK1-MAPK-ERK activation, • increased ERK and MEK-1 levels, which activated p90RSK and MMPs expression. ERK also acts via stat-3 and NF-KB, • stimulated GMCSF and IL-6 expression, which act via JAK-STAT pathway and activates NF-KB, • activated IL-4R expression, which connects to JAK-STAT pathway. IL-4R also acts via PI3K-Akt arm, • increased IL-8 levels, which acts via PI-3K-Akt-FOX3 arm. Akt also acts via Stat-3-NF-KB arm, where SEQ ID NO. 2 exerted an increase in Stat-3, • increased expression of Leptin, which binds to its receptor Leptin-R and acts on ERK pathway, • increased levels of cytokines (GMCSF, IL-6 and IL-8) may also interact with the immune system in tumor microenvironment to mount anticancer immunoprotective effect, • activated of TNF-α which connects to JNK pathway, • increased levels of endoglin-1 expression, which is a receptor for TGF-β. […] Binding to Tie-2 regulates PI3k pathway, • activation of Kallikrien-3 & Kallikrien-5 that acts as act a tumor suppressor, via induction of apoptosis, • activation of TRAIL & TRAILR2 causes apoptosis primarily in tumor cells, by binding to certain death receptors, • activation of Osteopontin (PON) which binds to receptors αVβ3 and CD44 and acts via Akt pathway, • inhibited Galectin-1 which either acts via Ras-Raf pathway or PI3k-Akt pathway.

[1] = test system: T-47D (Human mammary gland ductal carcinoma); assay: MTT cytotoxicity assay; details: 48h
Experimental: (§1) All the cancer cell lines were procured from National Centre for Cell Science, Pune (India). Cell lines were maintained under conditions as mentioned in Table 23. The cell lines were sub-cultured by trypsinization followed by splitting the cell suspension into fresh flasks and supplementing with fresh culture medium.
(§2) All the cell lines were grown in specified media at 37° C. with 95% Humidity and 5% CO2.
(§3) The cells were trypsinized, counted by Trypan blue method in Neuebauer's Chamber and plated in wells of flat bottom 96-well plate at the density corresponding to 10×10^3 cells/well/200 μL medium.
(§4) Following overnight incubation, the media in the plate was replenished with 180 μL/well and then the cells were treated with 20 μL of each test item at concentrations ranging from 2.5 μg/mL-80 μg/mL in triplicates, so that the total volume in each well is 200 μL.
(§5) The untreated cells served as negative control. The cells were incubated with the test items or positive control for a time period of 48h. Following incubation, the cell cytotoxicity was estimated using MTT assay. Absorbance was measured at 540 nm. The percentage cytotoxicity corresponding to each treatment was calculated using the formula:
(§6) % Cytotoxicity=(1−X/R)*100
(§7) Where X=absorbance of wells corresponding to treated cells R=absorbance of untreated cells (cells maintained in growth medium only)
(§8) IC50 value was calculated using Graph-Pad Prism version 4.01 software.

[2] = test system: MDA-MB-453 (Human breast metastatic carcinoma); assay: MTT cytotoxicity assay; details: 48h
Experimental: as §1, §2, §3, §4, §5, §6, §7, §8

[3] = test system: T24 (Human Bladder Cancer); assay: MTT cytotoxicity assay; details: 48h
Experimental: as §1, §2, §3, §4, §5, §6, §7, §8

[4] = test system: MIA PaCa-2 (Human pancreatic carcinoma); assay: MTT cytotoxicity assay; details: 48h
Experimental: as §1, §2, §3, §4, §5, §6, §7, §8

[5] = test system: PANC-1 (Human pancreatic epitheloid carcinoma); assay: MTT cytotoxicity assay; details: 48h
Experimental: as §1, §2, §3, §4, §5, §6, §7, §8

[6] = test system: MDA-MB-231 (Human breast adenocarcinoma); assay: MTT cytotoxicity assay; details: 48h
Experimental: as §1, §2, §3, §4, §5, §6, §7, §8

[7] = test system: PBMCs (Peripheral blood mononuclear cells); assay: MTT cytotoxicity assay; details: 48h
Experimental: as §1, §2, §3, §4, §5, §6, §7, §8

B1: SEQ ID NO. 2: recombinant lectin; variant of the S. rolfsii lectin amino acid sequence (reported as Rec-2 in WO 2010/095143) (protein)
chain: TYKITVRVYQTNPDAFFHPVEKTVWKYANGGTWTITDDQHVLTMGGSGTSGTLRFHADNGESFTATFGVHNYKRWCDIVTNLAADETGMVINQQYYSQKNREEARERQLSNYQVKNAKGRNFQIVYTEAEGNDLHANLIIG
modifications: In vitro synthesis
- Percentage inhibition on levels of Notch-1 (Notch-1): 81.2%-99.8%
- ATF-2 (mechanistic biomarkers): activated
- Angiopoietin-1 & Angiopoietin-2 (mechanistic biomarkers): activation
- CD40L (mechanistic biomarkers): inhibited
- ERK and MEK-1 levels (mechanistic biomarkers): increased
- Fol-1 expression (mechanistic biomarkers): increased
- GMCSF and IL-6 expression (mechanistic biomarkers): stimulated
- Galectin-1 (mechanistic biomarkers): inhibited
- Galectin-3 (mechanistic biomarkers): inhibited
- Her-2 (mechanistic biomarkers): stimulated
- IL-4R expression (mechanistic biomarkers): activated
- IL-8 levels (mechanistic biomarkers): increased
- Kallikrien-3 & Kallikrien-5 (mechanistic biomarkers): activation
- Osteopontin (PON) (mechanistic biomarkers): activation
- PDGF-BB (mechanistic biomarkers): activation
- Stat-3 (mechanistic biomarkers): increase
- TGF-alpha (mechanistic biomarkers): activation
- TNF-α (mechanistic biomarkers): activated
- TRAIL & TRAILR2 (mechanistic biomarkers): activation
- VEGF, VEGF-A and VEGFR2 expression (mechanistic biomarkers): stimulated
- expression of EGF (mechanistic biomarkers): inhibited
- expression of JNK (mechanistic biomarkers): increased
- expression of Leptin (mechanistic biomarkers): increased
- expression of c-kit (mechanistic biomarkers): increased
- levels of HGF (mechanistic biomarkers): increased
- levels of endoglin-1 expression (mechanistic biomarkers): increased
- p53 (mechanistic biomarkers): inhibits
- IC50 [1]: >80 µg/mL
- IC50 [2]: >80 µg/mL
- IC50 [3]: 10.4 µg/mL
- IC50 [4]: >80 µg/mL
- IC50 [5]: 24.3 µg/mL
- IC50 [6]: 9.7 µg/mL
- IC50 [7]: >80 µg/mL
- % Cytotoxicity (T-24): 93.1%
